From publication PMC2760593 (Journal of biochemistry, 2008)

Target: T1, polyhistidine (His)-tagged recombinant full-length CCN2 (UniProt P29279 27-349)
T1 sequence (looked up): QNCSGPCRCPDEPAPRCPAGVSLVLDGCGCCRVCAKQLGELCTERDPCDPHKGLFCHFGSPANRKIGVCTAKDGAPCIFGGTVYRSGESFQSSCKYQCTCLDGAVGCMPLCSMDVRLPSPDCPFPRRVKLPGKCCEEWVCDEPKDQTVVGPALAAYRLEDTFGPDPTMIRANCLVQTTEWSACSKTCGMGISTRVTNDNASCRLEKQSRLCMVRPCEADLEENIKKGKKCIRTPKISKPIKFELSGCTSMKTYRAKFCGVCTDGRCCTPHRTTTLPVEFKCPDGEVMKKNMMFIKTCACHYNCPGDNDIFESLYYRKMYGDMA
Assay: SPR

- Kd: 0.77 nM
B1: recombinant bone morphogenetic protein (BMP)-2 (ligand, UniProt P12643 283-396, looked up)
chain: QAKHKQRKRLKSSCKRHPLYVDFSDVGWNDWIVAPPGYHAFYCHGECPFPLADHLNSTNHAIVQTLVNSVNSKIPKACCVPTELSAISMLYLDENEKVVLKNYQDMVVEGCGCR
